According to paper PMC7932536:

Columns and labels:
[1] = molecular target: Human amyloid beta (Aβ) 42 peptide (human) (UniProt P05067)
[2] = molecular target: Human amyloid beta (Aβ) 42 peptide (human) (UniProt P05067); remark: listed apart in the source

SAMP8 type Serpina3n, sequence (Q91WP6 21-418): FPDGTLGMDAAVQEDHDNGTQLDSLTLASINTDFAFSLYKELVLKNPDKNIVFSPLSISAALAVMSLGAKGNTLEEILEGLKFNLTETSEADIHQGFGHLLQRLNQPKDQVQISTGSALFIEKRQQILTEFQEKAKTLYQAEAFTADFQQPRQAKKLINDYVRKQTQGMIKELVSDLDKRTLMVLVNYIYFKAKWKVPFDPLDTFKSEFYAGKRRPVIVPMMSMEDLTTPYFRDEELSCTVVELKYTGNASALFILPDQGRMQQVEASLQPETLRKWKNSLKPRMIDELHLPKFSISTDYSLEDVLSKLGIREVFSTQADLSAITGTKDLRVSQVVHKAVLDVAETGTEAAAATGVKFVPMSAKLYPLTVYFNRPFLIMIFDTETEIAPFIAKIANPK

**Q.** With “SAMP8 type Serpina3n (from UniProt Q91WP6 21-418) (natural protein)” as the substance, how does the prevalence of oligomer rich observation fields of Aβ 42 under TEM, 0 to 72 hr of preincubation (delayed fibrillization) [1] read?
**A.** Its prevalence of oligomer rich observation fields of Aβ 42 under TEM, 0 to 72 hr of preincubation (delayed fibrillization) is 72 h.

**Q.** What about the thioflavin T fluorescence assay of Aβ 42 fibrillization (time for which oligomeric or small protofibrillar forms were kept before the plateau) [2] of the same substance?
**A.** The thioflavin T fluorescence assay of Aβ 42 fibrillization (time for which oligomeric or small protofibrillar forms were kept before the plateau) was 13 h.
